Source: patent US20150079112A1 (SAMSUNG ELECTRONICS, published 2015)
Numbering of substitutions follows the chain as printed.

Key:
hTie2-Fc (R&D Systems) = target: T1, hTie2-Fc (R&D Systems) (human, UniProt Q02763 23-745); experiment: ELISA: coated Tie2-Fc, 10D6 2 µg/ml without Ang2, detected with anti-mouse IgG-HRP (OD450)
T1 construct: also called hTie-2/Fc fusion protein; not shown: Fc of human IgG1
Protocol: A 96-well MaxiSorp™ flat-bottom plate (Nunc) was coated with 4 ug/ml of Tie2-Fc (R&D systems) or BSA (Sigma). Then, the plate was washed five times with 0.05% (v/v) Tween-20-containing PBS (Phosphate Buffer Saline) and blocked with 1% (v/v) BSA (Bovine serum albumin; Sigma)-containing PBS at a room temperature for 2 hours. […] After that, an anti-mouse IgG antibody (Sigma) conjugated with HRP diluted in 1% (v/v) BSA-containing PBS at a ratio of 1:5,000 (v/v) was added in an amount of 100 ul to each well to react at a room temperature for 1 hour and then, the plate was washed five times with PBST. Lastly, 100 ul (microliter) of TMB substrate (Cell Signaling) was added to each well of the plate to induce color development for 3 min. and then, the reaction was ceased by the addition of 100 ul of Stop solution (Cell Signaling) and OD450 values were measured on a plate reader (Molecular Devices).

[1] = target: T2, mutant Ang2 protein, D448 substituted with alanine, FLAG-tagged at its N-terminal (human, UniProt O15123 19-496, limits assumed); experiment: ELISA, coated antibody 1000 nM, 250 ng FLAG-tagged mutant Ang2, anti-FLAG-HRP, OD450
T2 sequence: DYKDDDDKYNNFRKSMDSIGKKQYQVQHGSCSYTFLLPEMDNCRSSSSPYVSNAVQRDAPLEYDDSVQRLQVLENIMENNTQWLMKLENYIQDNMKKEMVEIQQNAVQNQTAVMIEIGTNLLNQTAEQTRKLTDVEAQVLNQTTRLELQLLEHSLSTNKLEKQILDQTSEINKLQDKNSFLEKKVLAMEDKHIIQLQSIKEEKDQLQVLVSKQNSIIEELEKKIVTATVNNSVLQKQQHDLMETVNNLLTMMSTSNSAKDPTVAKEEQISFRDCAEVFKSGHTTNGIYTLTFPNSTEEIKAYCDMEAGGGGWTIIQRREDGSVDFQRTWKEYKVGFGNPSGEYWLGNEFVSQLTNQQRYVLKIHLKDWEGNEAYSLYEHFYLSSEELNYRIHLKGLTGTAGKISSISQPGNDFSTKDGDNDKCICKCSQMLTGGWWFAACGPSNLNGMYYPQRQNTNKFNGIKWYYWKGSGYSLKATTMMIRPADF
Protocol: (§1) Each well of a 96-well MaxiSorp™ flat-bottom plate (Nunc) was coated with 50 ul (microliter) of 1000 nM antibody. Then, the plate was washed five times with 0.05% (v/v) Tween-20-containing PBS (PBST) and blocked with 1% (v/v) BSA-containing PBS at a room temperature for 2 hours. 250 ng of each mutant Ang2 protein obtained by substituting S417, Q418, P419, N421, I434, D448, A449, P452, Y460, N467, K468, or F469 residue of Ang2 protein tagged with a FLAG sequence ([…], Sigma) at its N-terminal with alanine was added to each well of the plate, which was then allowed to react at a room temperature for 2 hours.
(§2) The plate was washed five times with 0.05% (v/v) Tween-20 containing PBS, reacted with an anti-FLAG antibody (SIGMA) conjugated with HRP which was diluted in 1% (v/v) BSA-containing PBS at a ratio of 1:5,000 (v/v) at a room temperature for 1 hour, and washed five times with 0.1% (v/v) Tween-20-containing PBS.
(§3) Finally, 50 ul of TMB substrates (Cell signaling) was added to each well of the plate to induce color development at a room temperature for 3 min. and the reaction was ceased by the addition of 50 ul of Stop solution (Cell signaling) and then, OD450 values were measured on a plate reader (Molecular Devices). By comparing binding affinities with mutated Ang2 to those of unmutated Ang2, each epitope of Ang2 antibodies was identified. The thus obtained measurement results of the binding affinities (%) with mutant Ang2 against the binding affinity with the native Ang2 are shown in the following Table 8.

[2] = target: T3, mutant Ang2 protein, P419 substituted with alanine, FLAG-tagged at its N-terminal (human, UniProt O15123 19-496, limits assumed); experiment: as above
T3 sequence: T2 sequence with P409A, A438D
Protocol: as §1, §2, §3

[3] = target: T4, mutant Ang2 protein, Q418 substituted with alanine, FLAG-tagged at its N-terminal (human, UniProt O15123 19-496, limits assumed); experiment: as above
T4 sequence: T2 sequence with Q408A, A438D
Protocol: as §1, §2, §3

T1 sequence (Q02763 23-745 limits assumed): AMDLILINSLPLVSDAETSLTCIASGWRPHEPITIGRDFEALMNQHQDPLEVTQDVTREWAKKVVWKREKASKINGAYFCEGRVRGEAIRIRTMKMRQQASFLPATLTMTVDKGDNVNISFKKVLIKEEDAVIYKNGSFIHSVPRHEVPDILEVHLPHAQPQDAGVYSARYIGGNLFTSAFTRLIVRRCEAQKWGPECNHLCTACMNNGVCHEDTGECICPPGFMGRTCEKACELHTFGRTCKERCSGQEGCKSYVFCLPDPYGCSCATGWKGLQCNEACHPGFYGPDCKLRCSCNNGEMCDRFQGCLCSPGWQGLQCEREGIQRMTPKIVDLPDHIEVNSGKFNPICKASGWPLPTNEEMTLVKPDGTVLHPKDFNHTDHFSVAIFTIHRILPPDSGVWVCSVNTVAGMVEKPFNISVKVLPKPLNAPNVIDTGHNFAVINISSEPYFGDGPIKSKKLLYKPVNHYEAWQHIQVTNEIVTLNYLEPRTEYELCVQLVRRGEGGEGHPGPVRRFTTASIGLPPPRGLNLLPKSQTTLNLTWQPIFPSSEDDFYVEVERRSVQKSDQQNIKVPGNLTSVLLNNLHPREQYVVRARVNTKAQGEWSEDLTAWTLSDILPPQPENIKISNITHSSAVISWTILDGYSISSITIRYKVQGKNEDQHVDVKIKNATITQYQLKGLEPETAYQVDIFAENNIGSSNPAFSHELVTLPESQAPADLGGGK

B1: SAIT-ANG2-AB-m10D6 (antibody, V domains shown)
VH: DVQLQESGPGLVKPSQSLSLTCTVTGYSITSDYAWNWIRQFPGNKLEWMGYINYSGNTDYNPSLKSRSSITRDTSKNQFFLQLNSVTTGDTATYYCARGNFEGAMDYWGQGTSVTVSS
VL: SIVMTQTPKFLLVSAGDRVTITCKASQSVSNDVAWYQQKPGQSPKLLIYYASNRYPGVPDRFTGSGYGTDFTFTISTVQAEDLAVYFCQQDYSSPWTFGGGTKLEIK
notes: also called antibody 10D6; anti-Ang2 antibody (10D6)
For B1, the binding result (hTie2-Fc (R&D Systems)) was “no binding (tested: 2 µg/ml)”, the “binding affinity (%) with mutant Ang2 against the binding affinity with the native Ang2” value (from here on “binding affinity (%) with mutant Ang2”) [1] was 105% and the “binding affinity (%) with mutant Ang2” value [2] was 41.1%. For the same binder, the “binding affinity (%) with mutant Ang2” value [3] was 38.9%.
